The record followed here is article PMC3040777, “Purification and Characterization of the RecA Protein from Neisseria gonorrhoeae”.

The target in data set [1] is SSBEc (Escherichia coli, UniProt P0AGE0 1-178). In words: EMSA; 50 uM nucleotides ssDNA; SSB 10 nM-10 uM; fully bound at 1/10 SSB; affinity similar to SSBNg; EMSA: 20 mM Tris-Cl 39% cation (pH 8.3), 0.5 M NaCl, 1 mM EDTA, 50% glycerol, 10 min at 37 C; 4% native PAGE at 4 C. Particulars: protein: recombinant; chain copies: 4; label: 5'-6FAM; single strand.
Sequence of SSBEc (P0AGE0 whole entry): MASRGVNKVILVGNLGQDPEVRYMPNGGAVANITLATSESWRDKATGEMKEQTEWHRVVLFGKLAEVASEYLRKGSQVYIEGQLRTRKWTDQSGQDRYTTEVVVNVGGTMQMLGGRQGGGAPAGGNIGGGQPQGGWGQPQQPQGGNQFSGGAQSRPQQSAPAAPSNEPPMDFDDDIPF
Data set [2] concerns the target T1, SSBNg (Neisseria gonorrhoeae, UniProt Q5F7Y0 1-174).
T1 sequence: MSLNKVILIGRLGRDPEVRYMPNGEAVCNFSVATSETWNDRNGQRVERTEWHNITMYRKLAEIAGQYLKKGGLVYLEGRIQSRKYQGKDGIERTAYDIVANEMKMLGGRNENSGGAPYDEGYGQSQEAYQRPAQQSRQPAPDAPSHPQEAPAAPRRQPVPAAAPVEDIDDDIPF
The experiment in a line: EMSA; 50 uM nucleotides ssDNA; SSB 10 nM-10 uM; fully bound at 1/10 SSB; affinity similar to SSBEc; EMSA: 20 mM Tris-Cl 39% cation (pH 8.3), 0.5 M NaCl, 1 mM EDTA, 50% glycerol, 10 min at 37 C; 4% native PAGE at 4 C. Conditions: protein: recombinant; tags: none stated (pET21a, native purification); chain copies: 4; label: 5'-6FAM; single strand.

For TGCCTCGCGGTAGCTCTTCTCGGAGCGCACGATTCGCACTGCTGATGTTC (ssDNA) [OCN324 50-mer], the binding result in data set [1] and in data set [2] was “binds” in each case.
